The values that follow come from US20090131309A1, “ICA512 COUPLES INSULIN SECRETION AND GENE EXPRESSION IN BETA-CELLS” (Technische Universität Dresden Medizinizche Fakultät Carl …, priority 2004, published 2009).

Substitutions are numbered along the chain they refer to. Starred links: 1 amine or outer side, 2 acyl side, 3 side chain; linkers in the order of their positions; H or OH if unused. Positions of bridges follow the written chain, without caps; N, C: chain ends. Non-standard residues stand in square brackets, D forms with d. Residues, ends and D or L forms follow the SMILES beside them. Chains are numbered I, II in the order given. Actinocin(9to1) = Cc1c2oc3c(C)ccc(C(=O)[*:1])c3nc-2c(C(=O)[*:2])c(N)c1=O; NMeV = CN[C@H](C(=O)O)C(C)C; Sar = CNCC(=O)O

One assay relates to INS-1 cells. Briefly: Uridine incorporation in INS-1 cells. The format is cell-based, rat. Particulars: 5 μg/ml actinomycin D; ICA512-CCF-GFP-transfected INS-1 cells.
The test system of the next assay is pro-ICA512. Particulars: cells stimulated for 2 hours; reference 8; cited from earlier work.
Assay [1] has as its target T1, STAT5b (rat, UniProt P52632 1-786).
T1 sequence (looked up): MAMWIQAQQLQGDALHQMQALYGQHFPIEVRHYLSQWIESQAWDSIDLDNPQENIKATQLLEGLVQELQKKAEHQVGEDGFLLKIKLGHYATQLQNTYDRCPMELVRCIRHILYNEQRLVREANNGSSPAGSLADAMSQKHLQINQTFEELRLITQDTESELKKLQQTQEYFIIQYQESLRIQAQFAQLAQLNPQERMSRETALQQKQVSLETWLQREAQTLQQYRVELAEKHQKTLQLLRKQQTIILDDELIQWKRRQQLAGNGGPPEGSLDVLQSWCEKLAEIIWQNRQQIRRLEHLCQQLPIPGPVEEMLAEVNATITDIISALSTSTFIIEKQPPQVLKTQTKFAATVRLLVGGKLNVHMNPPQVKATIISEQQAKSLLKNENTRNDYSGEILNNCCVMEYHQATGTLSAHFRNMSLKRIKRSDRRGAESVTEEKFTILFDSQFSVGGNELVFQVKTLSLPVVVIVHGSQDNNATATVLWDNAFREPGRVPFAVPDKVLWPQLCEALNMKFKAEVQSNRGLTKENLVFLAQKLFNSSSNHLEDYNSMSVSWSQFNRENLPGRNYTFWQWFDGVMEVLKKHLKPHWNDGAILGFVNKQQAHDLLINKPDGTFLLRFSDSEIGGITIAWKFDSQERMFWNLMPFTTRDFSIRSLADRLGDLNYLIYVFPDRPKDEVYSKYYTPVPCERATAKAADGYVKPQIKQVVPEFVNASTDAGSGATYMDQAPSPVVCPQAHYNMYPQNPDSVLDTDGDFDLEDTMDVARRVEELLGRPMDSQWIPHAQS
Briefly: cell-based or functional assay.

The target of a further assay is T2, PIASy-YFP (mouse, UniProt Q9JM05 2-507).
T2 construct: whole, on cells; Transiently expressed in INS-1 cells; nuclear; not shown: YFP encoded by pEYFP-N2 (Clontech), fused at the C-terminus
T2 sequence (looked up): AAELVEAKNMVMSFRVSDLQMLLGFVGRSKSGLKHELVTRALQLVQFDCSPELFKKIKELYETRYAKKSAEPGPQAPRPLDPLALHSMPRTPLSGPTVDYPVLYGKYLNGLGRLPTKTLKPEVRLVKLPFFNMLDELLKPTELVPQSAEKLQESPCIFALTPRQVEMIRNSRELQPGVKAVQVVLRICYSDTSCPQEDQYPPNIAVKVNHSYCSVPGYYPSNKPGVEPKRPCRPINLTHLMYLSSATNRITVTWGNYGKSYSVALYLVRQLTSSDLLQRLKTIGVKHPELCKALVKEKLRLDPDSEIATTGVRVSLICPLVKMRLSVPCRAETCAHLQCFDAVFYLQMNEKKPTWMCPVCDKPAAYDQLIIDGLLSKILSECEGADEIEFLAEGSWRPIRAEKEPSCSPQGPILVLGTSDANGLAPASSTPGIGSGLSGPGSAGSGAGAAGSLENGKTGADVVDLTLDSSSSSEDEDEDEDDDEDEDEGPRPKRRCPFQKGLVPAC
Briefly: FRET by acceptor photobleaching in nuclei of co-transfected INS-1 cells. As for the experimental part: FRET analysis. INS-1 cells transiently co-transfected with ICA512-CFP, PIASy-YFP, Ism4-YFP and Ism4-CFP were incubated either in resting or stimulating buffer for 90 minutes. Following fixation in 2% paraformahaldehyde, cells were imaged with an inverted […] confocal microscope (Zeiss) using a Plan-Apochromat 100× 1.4 oil DIC objective, The pinhole diameter was set between 1.0 and 1.25 Airy-Unit. […] 458 nm and 514 nm laser lines were used to excite CFP and YFP, respectively. CFP images were acquired with a 458 nm dichroic mirror and a bandpass filter of 475-495, while YFP fluorescence was collected with a 514 nm dichroic mirror and a bandpass filter of 530-600 nm. FRET was assessed by measuring the dequenching of CFP during the photobleaching of YFP performed with the 514 nm laser line at 70% power and for six cycles of 30 sec. each. Mean fluorescence of CFP and YFP were determined by tracing the nuclear perimeter of the cell using the “region of interest” software function. Fluorescence intensity of CFP after photobleaching was normalized to 100% at time 0. In each experiment, 6-9 fields for each slide were photobleached and recorded. Each experiment was independently performed two times.

For assay [2], the target named is T1, STAT5b. Briefly: anti-GFP immunoprecipitation from total INS-1 extracts, immunoblot for STAT5b. As for the experimental part: Immunoprecipitation. INS-1 cells were transiently transfected With one or more of the following constructs: GFP, ICA512-CCF-GFP, ICA512-CCF(K/A⁷⁵⁴)-GFP, SUMO-1 and HA-SUMO-1. Anti-GFP IgGs were used for immunoprecipitations from total or cytosolic extracts. Immunoprecipitates were immunoblotted with anti-STAT5b, anti-PY-STAT5, anti-GFP or anti-HA antibodies. 600 μg and 200 μg protein were used as starting material for immunopreciptation of sumoylated ICA512 and STAT5, respectively.
(A western blot detects proteins with antibodies after separation by electrophoresis.)

Assay [3] concerns the target T3, in-vitro transcribed and translated [^35S]-labeled PIASy (mouse, UniProt Q9JM05 1-507, [35S]-methionine label).
T3 construct: The mouse PIASy cDNA in pcDNA3.1 is the only untagged PIASy construct described; also called [^35S]-PIASy; [^35S]-methionine-PIASy
T3 sequence (looked up): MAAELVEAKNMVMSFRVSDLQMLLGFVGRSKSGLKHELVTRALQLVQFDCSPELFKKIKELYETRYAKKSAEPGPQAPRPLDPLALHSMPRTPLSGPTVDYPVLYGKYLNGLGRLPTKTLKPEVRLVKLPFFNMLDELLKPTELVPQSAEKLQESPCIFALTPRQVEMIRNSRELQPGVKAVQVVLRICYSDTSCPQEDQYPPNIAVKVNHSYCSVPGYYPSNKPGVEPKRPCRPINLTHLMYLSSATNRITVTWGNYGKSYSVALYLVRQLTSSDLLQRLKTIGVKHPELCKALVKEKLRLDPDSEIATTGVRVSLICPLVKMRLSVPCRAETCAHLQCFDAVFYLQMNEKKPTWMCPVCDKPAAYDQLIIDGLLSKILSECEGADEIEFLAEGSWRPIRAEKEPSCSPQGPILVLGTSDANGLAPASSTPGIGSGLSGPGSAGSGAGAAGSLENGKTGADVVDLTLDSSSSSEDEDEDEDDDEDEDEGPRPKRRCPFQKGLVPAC
Briefly: GST pull-down, SDS-PAGE and autoradiography.

On to `Cc1c2oc3c(C)ccc(C(=O)N[C@@H]4C(=O)N[C@H](C(C)C)C(=O)N5CCC[C@H]5C(=O)N(C)CC(=O)N(C)[C@@H](C(C)C)C(=O)O[C@@H]4C)c3nc-2c(C(=O)N[C@@H]2C(=O)N[C@H](C(C)C)C(=O)N3CCC[C@H]3C(=O)N(C)CC(=O)N(C)[C@@H](C(C)C)C(=O)O[C@@H]2C)c(N)c1=O` [actinomycin D, reference compound] (I: T[dV]P[Sar][NMeV] / II: T[dV]P[Sar][NMeV]; ester I:1-I:C, II:1-II:C; linker I:N-II:N via Actinocin(9to1)), for which, in the assay on INS-1 cells, the “effect on the increase of 3H-uridine incorporation” value is “abolished”. Also, the “rapid induction of pro-ICA512” value with pro-ICA512 is “did not prevent the rapid induction of pro-ICA512”.

B1: ICA512-CCF-GFP (other, not shown: large carriers)
chain: SQFSDAAQASPSSHSSTPSWCEEPAQANMDISTGHMILAYMEDHLRNRDRLAKEWQALCAYQAEPNTCATAQGEGNIKKNRHPDFLPYDHARIKLKVESSPSRSDYINASPIIEHDPRMPAYIATQGPLSHTIADFWQMVWESGCTVIVMLTPLVEDGVKQCDRYWPDEGASLYHVYEVNLVSEHIWCEDFLVRSFYLKNVQTQETRTLTQFHFLSWPAEGTPASTRPLLDFRRKVNKCYRGRSCPIIVHCSDGAGRTGTYILIDMVLNRMAKGVKEIDIAATLEHVRDQRPGLVRSKDQFEFALTAVAEEVNAILKALPQ
Turning to B1, in the assay with STAT5b [1], the “luciferase activity of the STAT reporter 8GLE-CAS-FL in hGH-stimulated INS-1 cells, relative to GFP cells” value is above 500%.

B2: ICA512-CFP (other)
chain: B1 chain
notes: The FRET was read in the nucleus, so the partner of PIASy-YFP there is the cleaved cytoplasmic fragment ICA512-CCF-CFP; Its N-terminal limit in cells is not determined; also called ICA512-CCF-CFP (its cleaved cytoplasmic fragment in the nucleus); not shown: CFP encoded by pECFP-N1 (Clontech), fused at the C-terminus
In the case of B2, in the assay with PIASy-YFP, the “fold increase of the recovery of ICA512-CFP signal after photobleaching of PIASy-YFP (FRET), stimulated against resting cells” value is around 5 fold.

B3: ICA512-CCF(K/A^754)-GFP (other)
chain: B1 chain with K96A
notes: Expressed in INS-1 cells; not shown: GFP encoded by pEGFP-N1 (Clontech), fused at the C-terminus
On to B3, for which the binding result in the assay with STAT5b [2] is on record as “binds”.

B4: GST-ICA512 (800-979) (other)
chain: ESGCTVIVMLTPLVEDGVKQCDRYWPDEGASLYHVYEVNLVSEHIWCEDFLVRSFYLKNVQTQETRTLTQFHFLSWPAEGTPASTRPLLDFRRKVNKCYRGRSCPIIVHCSDGAGRTGTYILIDMVLNRMAKGVKEIDIAATLEHVRDQRPGLVRSKDQFEFALTAVAEEVNAILKALPQ
notes: Bacterially expressed; not shown: glutathione S-transferase (GST) fusion partner
With B4, the binding result in assay [3] was “no binding”.
